According to patent publication US20260242478A1 (published 2026):
Where no end group is shown, it is not given here.

B1: Phage-2208 (peptide)
peptide: ALHWCIPEWMCSSM
notes: Tested as clonal phage supernatant, with the peptide fused to pIII of the bacteriophage
B2: Phage-2221 (peptide)
peptide: GHQWCIPQWMCVGL
notes: as for B1
B3: Phage-2215 (peptide)
peptide: GVKWCTPPWMCEVA
notes: as for B1
B4: Phage-2220 (peptide)
peptide: EPKWCTPEWMCLNL
notes: as for B1
B5: Phage-2206 (peptide)
peptide: LEKWCIPAWMCAVL
modifications: cysteine pairing not given here; also: fused to pIII of bacteriophage
notes: as for B1
B6: Phage-2218 (peptide)
peptide: VPKQCVPEWMCSGF
notes: as for B1
B7: Phage-2216 (peptide)
peptide: WAQWCTPSWMCEGF
notes: as for B1
B8: Phage-2210 (peptide)
peptide: THNWCTPQWMCDGF
notes: as for B1
B9: Phage-2207 (peptide)
peptide: PTKWCIPEWMCSVI
notes: as for B1
B10: Phage-2214 (peptide)
peptide: PEKWCIPEWMCDAL
notes: Tested as clonal phage supernatant, with the peptide fused to pIII of the bacteriophage; Read from the row with '-' as the Peptide-180 residue: PEKWCIPEWMCDAL
B11: Phage-2211 (peptide)
peptide: PGKWCIPAWMCSLV
notes: as for B1
B12: Phage-2219 (peptide)
peptide: SENWCIPAWMCSGF
notes: as for B1
B13: Phage-2217 (peptide)
peptide: EVKWCIPSWMCESE
notes: as for B1
B14: Phage-2213 (peptide)
peptide: VIPLCSPPWMCFMS
notes: as for B1
B15: Phage-2209 (peptide)
peptide: QDHWCVPQWMCEML
notes: as for B1
B16: Phage-2212 (peptide)
peptide: TEKWCIPSWMCEIS
notes: as for B1
B17: Phage-2226 (peptide)
peptide: LAYWCTPAWMCEGF
B18: Phage-2233 (peptide)
peptide: EIQWCTPSWMCPWL
B19: Phage-2224 (peptide)
peptide: AIKWCTPPWMCDWH
B20: Phage-2228 (peptide)
peptide: LVKWCIPQWMCEQA
B21: Phage-2237 (peptide)
peptide: VSAWCIPPWMCGTN
B22: Phage-2235 (peptide)
peptide: FNKWCVPAWMCSDM
B23: Phage-2225 (peptide)
peptide: LFKVCTPSWMCSGF
B24: Phage-2231 (peptide)
peptide: LSKWCIPEWMCAVM
modifications: cysteine pairing not given here; also: pIII fusion on bacteriophage (not given here)
B25: Phage-2232 (peptide)
peptide: QLNWCRPAWMCEGF
B26: Phage-2236 (peptide)
peptide: PRKWCIPAWMCEII
B27: Phage-2223 (peptide)
peptide: FLKWCTPEWMCSDV
B28: Phage-2234 (peptide)
peptide: MPNWCTPTWMCQGF
B29: Phage-2229 (peptide)
peptide: LLKWCTPPWMCELH
B30: Phage-2222 (peptide)
peptide: TEKWCIPQWMCEAT
modifications: cysteine pairing not given here; also: displayed on phage, fused to pIII
notes: Peptide-180 library clone, tested as clonal phage (peptide fused to the pIII filament of the bacteriophage)
B31: Phage-2227 (peptide)
peptide: SELWCIPPWMCNFL
B32: Phage-2230 (peptide)
peptide: TDMWCIPPWMCERI
B33: Phage-1995 (peptide)
peptide: MGKWCIPPWMCVVD
notes: tested as crude phage supernatant
B34: Phage-1996 (peptide)
peptide: GSNWCKPAWMCEIM
notes: as for B33
B35: Phage-1992 (peptide)
peptide: PVKWCIPDWMCAYL
modifications: cysteine pairing not given here; also: displayed as fusion to phage pIII
notes: as for B33
B36: Phage-1993 (peptide)
peptide: EVKWCTPPWMCMFD
notes: as for B33
B37: Phage-1991 (peptide)
peptide: LVKWCTPSWMCINL
notes: as for B33
B38: Phage-1994 (peptide)
peptide: FDKWCIPTWMCELV
notes: as for B33
B39: Phage-2316 (peptide)
peptide: GMLACTPAWMCEGF
B40: Phage-2313 (peptide)
peptide: LEKWCMPPWMCSGT
modifications: cysteine pairing not given here; also: displayed on bacteriophage by fusion to pIII
B41: Phage-2315 (peptide)
peptide: EARWCTPPWMCAYM
modifications: cysteine pairing not given here; also: displayed on bacteriophage by fusion to pIII
B42: Phage-2314 (peptide)
peptide: FVNWCIPTWMCPEI
B43: Phage-2317 (peptide)
peptide: MEQWCIPQWMCSGF

biological target: T1, Anti-PSMA Fab (SEQ ID NOs: 19, 20); assay: phage ELISA; biotinylated PSMA Fab on neutravidin plate, bound phage detected with anti-M13-HRP;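 further: crude clonal phage supernatants added, without a wash, to wells pretreated with PSMA antigen in blocking buffer or with blocking buffer only, then briefly incubated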
T1 construct: Biotinylated and captured on neutravidin coated plates in the phage ELISA; also called 006 PSMA Fab
Method: (§1) Clonal phage were harvested as crude supernatants and screened via standard ELISAs. […] Prior to the addition of clonal phage. wells were incubated with blocking buffer and PSMA antigen or blocking buffer alone. Without washing or aspirating, clonal phage supernatants were then added to the wells and incubated for a short time. Wells were then washed followed by detection of bound phage using a horse radish conjugated anti-M13 antibody.

Point of comparison: B4, “Phage binding ELISA, Anti-PSMA Fab signal” value 1.58. Against it:
- B1 — higher, 1.61
- B2 — the same, 1.58
- B3 — higher, 1.59
- B5 — higher, 1.61
- B6 — higher, 1.59
- B7 — higher, 1.59
- B8 — higher, 1.6
- B9 — higher, 1.61
- B10 — higher, 1.6
- B11 — higher, 1.6
- B12 — higher, 1.59
- B13 — higher, 1.59
- B14 — higher, 1.6
- B15 — higher, 1.61
- B16 — higher, 1.6

biological target: T2, Anti-PSMA Fab (SEQ ID NOs: 19, 20); assay: phage binding ELISA, clonal phage on plate-captured biotinylated PSMA Fab
T2 construct: Biotinylated and captured on neutravidin coated plates in the phage ELISA; also called 006 PSMA Fab
Method: as §1

Point of comparison: B30, “Anti-PSMA Fab (SEQ ID NOs: 19, 20) signal” value 1.58. Against it:
- B17 — lower, 1.57
- B18 — lower, 1.57
- B19 — the same, 1.58
- B20 — lower, 1.57
- B21 — lower, 1.56
- B22 — lower, 1.56
- B23 — the same, 1.58
- B24 — lower, 1.57
- B25 — lower, 1.57
- B26 — lower, 1.56
- B27 — the same, 1.58
- B28 — lower, 1.57
- B29 — lower, 1.57
- B31 — lower, 1.57
- B32 — lower, 1.57

biological target: T3, Anti-PSMA Fab (SEQ ID NOs: 19, 20); assay: phage ELISA; biotinylated PSMA Fab on neutravidin plate, clonal phage supernatant, anti-M13-HRP detection;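 further: wells were preincubated with blocking buffer containing PSMA antigen or with blocking buffer only, then phage supernatant was added without washing for a brief incubation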
T3 construct: Biotinylated and captured on neutravidin coated plates in the phage ELISA; also called 006 PSMA Fab
Method: as §1

Point of comparison: B38, “Phage binding ELISA, Anti-PSMA Fab signal” value 1.86. Against it:
- B33 — the same, 1.86
- B34 — the same, 1.86
- B35 — the same, 1.86
- B36 — the same, 1.86
- B37 — higher, 1.87

biological target: T4, PSMA Fab (006 PSMA Fab); assay: clonal phage ELISA; biotinylated PSMA Fab on neutravidin plate, blocking buffer alone; anti-M13-HRP detection;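 further: clonal phage applied as crude supernatants to wells preincubated with blocking buffer, binding read by ELISA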
T4 construct: also called Anti-PSMA Fab; anti-PSMA Fab
Method: as §1

Point of comparison: B41, “Phage binding ELISA signal, Anti-PSMA Fab” value 1.47. Against it:
- B39 — the same, 1.47
- B40 — the same, 1.47
- B42 — the same, 1.47
- B43 — lower, 1.46

biological target: T4, PSMA Fab (006 PSMA Fab); assay: clonal phage ELISA; biotinylated PSMA Fab on neutravidin plate pre-incubated with competitor PSMA antigen; anti-M13-HRP detection
Method: as §1

Point of comparison: B42, “Phage binding ELISA signal, Anti-PSMA Fab in presence of PSMA antigen” value 0.233. Against it:
- B39 — lower, 0.0923
- B40 — lower, 0.0701
- B41 — lower, 0.0724
- B43 — lower, 0.0911

biological target: T2, Anti-PSMA Fab (SEQ ID NOs: 19, 20); assay: phage binding ELISA on plate-captured PSMA Fab, wells pre-incubated with PSMA antigen as competitor
Method: as §1

Point of comparison: B20, “Anti-PSMA Fab signal in the presence of PSMA” value 0.0712. Against it:
- B17 — higher, 0.112
- B18 — lower, 0.0668
- B19 — higher, 0.131
- B21 — higher, 0.0801
- B22 — higher, 0.0946
- B23 — higher, 0.0813
- B24 — higher, 0.0848
- B25 — higher, 0.128
- B26 — higher, 0.0733
- B27 — higher, 0.128
- B28 — lower, 0.0682
- B29 — higher, 0.0932
- B30 — higher, 0.0783
- B31 — lower, 0.0684
- B32 — higher, 0.0846

biological target: T1, Anti-PSMA Fab (SEQ ID NOs: 19, 20); assay: phage ELISA; PSMA Fab on plate pre-incubated with PSMA antigen as competitor, anti-M13-HRP detection;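 further: clonal phage from crude supernatants added without washing to wells preblocked with or without PSMA antigen, washed, bound phage read out by ELISA with HRP-linked anti-M13 antibody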
Method: as §1

Point of comparison: B2, “Phage binding ELISA, Anti-PSMA Fab signal in the presence of PSMA” value 0.0809. Against it:
- B1 — higher, 0.103
- B3 — lower, 0.0672
- B4 — higher, 0.0915
- B5 — lower, 0.078
- B6 — lower, 0.0779
- B7 — higher, 0.0929
- B8 — lower, 0.0628
- B9 — lower, 0.0587
- B10 — lower, 0.0578
- B11 — higher, 0.157
- B12 — higher, 0.111
- B13 — higher, 0.0904
- B14 — lower, 0.0631
- B15 — lower, 0.07
- B16 — higher, 0.0837

biological target: T3, Anti-PSMA Fab (SEQ ID NOs: 19, 20); assay: as above
Method: as §1

Point of comparison: B36, “Phage binding ELISA, Anti-PSMA Fab signal in the presence of PSMA” value 0.073. Against it:
- B33 — higher, 0.123
- B34 — lower, 0.0723
- B35 — higher, 0.115
- B37 — higher, 0.0883
- B38 — higher, 0.145
